Measured values reported in PMC11018308.

Key:
[1] = target: cell-surface mucins (on HeLa cells); test: flow cytometry on cells (anti-His staining, HeLa); details: 30 min at 4 °C in the presence of EDTA, n = 3 biologically independent replicates, read off a plot
[2] = target: cell-surface mucins (on HeLa cells); test: flow cytometry on cells; HeLa cells treated with His-tagged mucinases in cold FACS buffer (0.5% BSA in PBS) with 2 mM EDTA and 0.1% benzonase, 30 min on ice (4 °C); EDTA prevents enzyme activity; bound enzyme detected with FITC anti-His; effective (apparent) Kd from fits of normalised MFI

double deletion StcE (ΔC and ΔINS) (from UniProt O82882) Y457A
Kd ([1]; parent: est. 1300 nM): 1300 nM

ddStcE^H367A (from UniProt O82882 36-898) (enzyme)
Kd [2]: 2000 nM

StcE, zinc metalloprotease (mucinase) from Escherichia coli serotype O157:H7 (from UniProt O82882) Y457A
Kd ([1]; parent: est. 130 nM): 120 nM

ddStcE^W366A, engineered StcE (from UniProt O82882 36-898) (enzyme)
Kd [2]: 2000 nM

StcE, zinc metalloprotease (mucinase) from Escherichia coli serotype O157:H7 (from UniProt O82882) W366F
Kd ([1]; parent: est. 130 nM): 95 nM

StcE, zinc metalloprotease (mucinase) from Escherichia coli serotype O157:H7 (from UniProt O82882) Y457W
Kd ([1]; parent: est. 130 nM): 120 nM
